In PMC5908291, “The JmjN domain as a dimerization interface and a targeted inhibitor of KDM4 demethylase activity” (Oncotarget, 2018):

B1: KDM4A with a C-terminal YN or YC tag (enzyme, human, UniProt O75164 1-1064, looked up)
chain: MASESETLNPSARIMTFYPTMEEFRNFSRYIAYIESQGAHRAGLAKVVPPKEWKPRASYDDIDDLVIPAPIQQLVTGQSGLFTQYNIQKKAMTVREFRKIANSDKYCTPRYSEFEELERKYWKNLTFNPPIYGADVNGTLYEKHVDEWNIGRLRTILDLVEKESGITIEGVNTPYLYFGMWKTSFAWHTEDMDLYSINYLHFGEPKSWYSVPPEHGKRLERLAKGFFPGSAQSCEAFLRHKMTLISPLMLKKYGIPFDKVTQEAGEFMITFPYGYHAGFNHGFNCAESTNFATRRWIEYGKQAVLCSCRKDMVKISMDVFVRKFQPERYKLWKAGKDNTVIDHTLPTPEAAEFLKESELPPRAGNEEECPEEDMEGVEDGEEGDLKTSLAKHRIGTKRHRVCLEIPQEVSQSELFPKEDLSSEQYEMTECPAALAPVRPTHSSVRQVEDGLTFPDYSDSTEVKFEELKNVKLEEEDEEEEQAAAALDLSVNPASVGGRLVFSGSKKKSSSSLGSGSSRDSISSDSETSEPLSCRAQGQTGVLTVHSYAKGDGRVTVGEPCTRKKGSAARSFSERELAEVADEYMFSLEENKKSKGRRQPLSKLPRHHPLVLQECVSDDETSEQLTPEEEAEETEAWAKPLSQLWQNRPPNFEAEKEFNETMAQQAPHCAVCMIFQTYHQVEFGGFNQNCGNASDLAPQKQRTKPLIPEMCFTSTGCSTDINLSTPYLEEDGTSILVSCKKCSVRVHASCYGVPPAKASEDWMCSRCSANALEEDCCLCSLRGGALQRANDDRWVHVSCAVAILEARFVNIAERSPVDVSKIPLPRFKLKCIFCKKRRKRTAGCCVQCSHGRCPTAFHVSCAQAAGVMMQPDDWPFVVFITCFRHKIPNLERAKGALQSITAGQKVISKHKNGRFYQCEVVRLTTETFYEVNFDDGSFSDNLYPEDIVSQDCLQFGPPAEGEVVQVRWTDGQVYGAKFVASHPIQMYQVEFEDGSQLVVKRDDVYTLDEELPKRVKSRLSVASDMRFNEIFTEKEVKQEKKRQRVINSRYREDYIEPALYRAIME
notes: Lysine demethylase KDM4A (JmjD2A), human, ORF amplified from pCMV-HA-JmjD2A; BiFC pair: one molecule stands for the YN and the YC conjugate; also called KDM4A-YN; KDM4A-YC; source: HEK293, transiently transfected, in cells; not shown: YN (Venus YFP residues 1-172) on one copy or YC (Venus YFP residues 155-238) on the other, C-terminal, kept
B2: KDM4C with a C-terminal YN or YC tag (enzyme, human, UniProt Q9H3R0 1-1056, looked up)
chain: MEVAEVESPLNPSCKIMTFRPSMEEFREFNKYLAYMESKGAHRAGLAKVIPPKEWKPRQCYDDIDNLLIPAPIQQMVTGQSGLFTQYNIQKKAMTVKEFRQLANSGKYCTPRYLDYEDLERKYWKNLTFVAPIYGADINGSIYDEGVDEWNIARLNTVLDVVEEECGISIEGVNTPYLYFGMWKTTFAWHTEDMDLYSINYLHFGEPKSWYAIPPEHGKRLERLAQGFFPSSSQGCDAFLRHKMTLISPSVLKKYGIPFDKITQEAGEFMITFPYGYHAGFNHGFNCAESTNFATVRWIDYGKVAKLCTCRKDMVKISMDIFVRKFQPDRYQLWKQGKDIYTIDHTKPTPASTPEVKAWLQRRRKVRKASRSFQCARSTSKRPKADEEEEVSDEVDGAEVPNPDSVTDDLKVSEKSEAAVKLRNTEASSEEESSASRMQVEQNLSDHIKLSGNSCLSTSVTEDIKTEDDKAYAYRSVPSISSEADDSIPLSSGYEKPEKSDPSELSWPKSPESCSSVAESNGVLTEGEESDVESHGNGLEPGEIPAVPSGERNSFKVPSIAEGENKTSKSWRHPLSRPPARSPMTLVKQQAPSDEELPEVLSIEEEVEETESWAKPLIHLWQTKSPNFAAEQEYNATVARMKPHCAICTLLMPYHKPDSSNEENDARWETKLDEVVTSEGKTKPLIPEMCFIYSEENIEYSPPNAFLEEDGTSLLISCAKCCVRVHASCYGIPSHEICDGWLCARCKRNAWTAECCLCNLRGGALKQTKNNKWAHVMCAVAVPEVRFTNVPERTQIDVGRIPLQRLKLKCIFCRHRVKRVSGACIQCSYGRCPASFHVTCAHAAGVLMEPDDWPYVVNITCFRHKVNPNVKSKACEKVISVGQTVITKHRNTRYYSCRVMAVTSQTFYEVMFDDGSFSRDTFPEDIVSRDCLKLGPPAEGEVVQVKWPDGKLYGAKYFGSNIAHMYQVEFEDGSQIAMKREDIYTLDEELPKRVKARFSTASDMRFEDTFYGADIIQGERKRQRVLSSRFKNEYVADPVYRTFLKSSFQKKCQKRQ
notes: Lysine demethylase KDM4C (GASC1), human, ORF amplified from pCMV-HA-GASC1; 1056 aa as printed; BiFC pair: one molecule stands for the YN and the YC conjugate; also called KDM4C-YN; KDM4C-YC; source: HEK293, transiently transfected, in cells; not shown: YN (Venus YFP residues 1-172) on one copy or YC (Venus YFP residues 155-238) on the other, C-terminal, kept

How the values were obtained:
Assay in all cases: split reporter (BiFC, NanoBiT); BiFC (Venus YN + YC), IF microscopy of fixed HEK293 cells with quantitative image analysis (Imaris): mean reconstituted YFP fluorescence in each anti-YFP positive cell, >100 cells for each transfection
[1] = biological target: KDM4B with a C-terminal YN or YC tag (human) (UniProt O94953)
KDM4B with a C-terminal YN or YC tag (human), sequence (O94953 whole entry): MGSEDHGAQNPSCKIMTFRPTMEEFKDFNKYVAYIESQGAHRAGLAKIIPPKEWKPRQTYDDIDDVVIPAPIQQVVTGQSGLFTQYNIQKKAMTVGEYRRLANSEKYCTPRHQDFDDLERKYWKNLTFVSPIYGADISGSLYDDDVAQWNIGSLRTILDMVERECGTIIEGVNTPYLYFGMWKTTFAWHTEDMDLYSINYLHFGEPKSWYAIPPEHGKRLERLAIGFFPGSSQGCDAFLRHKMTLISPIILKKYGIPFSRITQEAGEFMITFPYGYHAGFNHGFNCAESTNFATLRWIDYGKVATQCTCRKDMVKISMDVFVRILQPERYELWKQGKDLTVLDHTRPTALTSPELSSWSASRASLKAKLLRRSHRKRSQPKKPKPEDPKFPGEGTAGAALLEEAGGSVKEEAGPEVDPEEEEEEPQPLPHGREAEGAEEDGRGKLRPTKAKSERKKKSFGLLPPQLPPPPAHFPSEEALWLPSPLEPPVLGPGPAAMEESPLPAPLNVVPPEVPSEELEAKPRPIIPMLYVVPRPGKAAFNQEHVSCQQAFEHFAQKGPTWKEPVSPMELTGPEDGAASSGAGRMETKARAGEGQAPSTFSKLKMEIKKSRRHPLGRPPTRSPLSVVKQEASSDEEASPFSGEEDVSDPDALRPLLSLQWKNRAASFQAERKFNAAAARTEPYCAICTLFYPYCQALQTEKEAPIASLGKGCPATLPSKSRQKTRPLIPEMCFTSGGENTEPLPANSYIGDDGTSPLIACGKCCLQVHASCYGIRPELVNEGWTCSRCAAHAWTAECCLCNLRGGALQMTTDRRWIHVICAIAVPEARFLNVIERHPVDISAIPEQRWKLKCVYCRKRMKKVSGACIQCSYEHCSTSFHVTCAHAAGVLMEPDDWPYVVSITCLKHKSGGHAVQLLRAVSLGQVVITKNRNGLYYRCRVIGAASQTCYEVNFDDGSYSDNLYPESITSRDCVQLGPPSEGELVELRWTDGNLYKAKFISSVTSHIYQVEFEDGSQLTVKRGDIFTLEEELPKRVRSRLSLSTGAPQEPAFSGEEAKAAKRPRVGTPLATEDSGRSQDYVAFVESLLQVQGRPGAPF

[2] = biological target: B2
[3] = biological target: the molecule itself

| Molecule | YFP fluorescence (BiFC), Average (arbitrary units) [1] | YFP fluorescence (BiFC), Max (arbitrary units) [1] | YFP fluorescence (BiFC), Median (arbitrary units) [1] | YFP fluorescence (BiFC), Min (arbitrary units) [1] | YFP fluorescence (BiFC), Average (arbitrary units) [2] | YFP fluorescence (BiFC), Max (arbitrary units) [2] | YFP fluorescence (BiFC), Median (arbitrary units) [2] | YFP fluorescence (BiFC), Min (arbitrary units) [2] | YFP fluorescence (BiFC), Average ([2]; partners not purified) | YFP fluorescence (BiFC), Max ([2]; partners not purified) | YFP fluorescence (BiFC), Median ([2]; partners not purified) | YFP fluorescence (BiFC), Min ([2]; partners not purified) | YFP fluorescence (BiFC), Average [3] | YFP fluorescence (BiFC), Max [3] | YFP fluorescence (BiFC), Median [3] | YFP fluorescence (BiFC), Min [3] |
| --- | --- | --- | --- | --- | --- | --- | --- | --- | --- | --- | --- | --- | --- | --- | --- | --- |
| KDM4B with a C-terminal YN or YC tag (from UniProt O94953 1-1096) (enzyme) | 129 | 320 | 120 | 48 | 170 | 356 | 146 | 50 |  |  |  |  |  |  |  |  |
| B1 | 110 | 309 | 104 | 19 |  |  |  |  | 845 arbitrary units | 3080 arbitrary units | 717 arbitrary units | 320 arbitrary units | 943 arbitrary units | 3140 arbitrary units | 726 arbitrary units | 259 arbitrary units |
| B2 |  |  |  |  |  |  |  |  |  |  |  |  | 741 arbitrary units | 2890 arbitrary units | 628 arbitrary units | 204 arbitrary units |
